Key:
[1] = molecular target: T1, human PSMA (human, UniProt Q04609 44-750); test: FACS on hPSMA (FIG. 2)
T1 construct: also called hPSMA; Human PSMA dimer (DT1596)

[2] = molecular target: mouse PSMA (mouse, UniProt O35409 45-752, limits assumed); test: ELISA, Biacore and/or FACS (not said which for mouse)
Chain of mouse PSMA (O35409 45-752 limits assumed): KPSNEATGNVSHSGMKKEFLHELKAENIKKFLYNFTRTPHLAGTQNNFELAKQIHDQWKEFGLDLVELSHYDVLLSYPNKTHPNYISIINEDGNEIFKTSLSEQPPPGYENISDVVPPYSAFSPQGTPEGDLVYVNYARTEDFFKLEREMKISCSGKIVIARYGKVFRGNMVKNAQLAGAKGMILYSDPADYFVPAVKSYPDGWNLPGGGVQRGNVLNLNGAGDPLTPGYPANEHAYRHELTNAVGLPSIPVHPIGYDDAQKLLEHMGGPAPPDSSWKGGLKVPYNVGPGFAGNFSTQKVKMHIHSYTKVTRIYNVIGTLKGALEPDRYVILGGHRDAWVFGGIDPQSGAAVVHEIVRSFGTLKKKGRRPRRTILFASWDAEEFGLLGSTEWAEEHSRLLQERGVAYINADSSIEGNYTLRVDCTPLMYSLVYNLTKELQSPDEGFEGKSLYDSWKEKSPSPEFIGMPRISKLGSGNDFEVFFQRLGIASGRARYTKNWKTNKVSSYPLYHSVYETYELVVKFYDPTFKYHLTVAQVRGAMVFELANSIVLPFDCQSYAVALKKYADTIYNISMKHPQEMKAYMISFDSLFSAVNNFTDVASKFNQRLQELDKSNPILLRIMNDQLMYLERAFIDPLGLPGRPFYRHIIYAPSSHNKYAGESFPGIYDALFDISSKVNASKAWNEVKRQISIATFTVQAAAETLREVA

T1 sequence (Q04609 44-750 limits assumed): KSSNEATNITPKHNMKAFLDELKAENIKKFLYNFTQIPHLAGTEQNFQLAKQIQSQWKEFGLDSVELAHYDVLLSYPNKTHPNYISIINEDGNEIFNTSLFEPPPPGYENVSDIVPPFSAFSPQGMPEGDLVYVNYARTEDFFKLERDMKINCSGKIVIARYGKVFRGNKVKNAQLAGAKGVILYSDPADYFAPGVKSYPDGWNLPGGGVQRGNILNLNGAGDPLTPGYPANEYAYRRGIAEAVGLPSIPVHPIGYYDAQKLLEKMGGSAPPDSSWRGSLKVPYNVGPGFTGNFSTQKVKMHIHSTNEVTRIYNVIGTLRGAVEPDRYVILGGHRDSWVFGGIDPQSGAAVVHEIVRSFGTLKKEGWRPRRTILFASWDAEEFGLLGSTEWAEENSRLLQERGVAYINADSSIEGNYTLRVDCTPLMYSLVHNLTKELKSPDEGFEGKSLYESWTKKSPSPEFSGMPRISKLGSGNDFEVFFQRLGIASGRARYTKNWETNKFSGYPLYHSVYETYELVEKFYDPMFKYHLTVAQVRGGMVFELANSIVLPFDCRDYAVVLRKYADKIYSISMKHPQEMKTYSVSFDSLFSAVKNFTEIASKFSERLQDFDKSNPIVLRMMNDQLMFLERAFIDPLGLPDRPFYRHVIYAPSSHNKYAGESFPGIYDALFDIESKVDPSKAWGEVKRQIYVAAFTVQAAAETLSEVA

| binding result [1] | binding result [2] | Binder |
| --- | --- | --- |
| binds | no binding | cHv75-2a7.G1(C99Y;L328C)k (antibody, V domains shown, also called [Ag]AB-5) VH: EVQLVESGGGLVQPGGSLRLSCAASGITFSNYWMSWVRQAPGKGLEWVANIKKDGSEKFYVDSVKGRFTISRDNAKNSLYLQINSLRAEDTAMYYCAREIQLYLQHWGQGTLVTVSS VL: DIQMTQSPSSVSASVGGRVTITCRASQGISNWLAWYQQKPGKAPKLLIYAASSLQSGVPSRFSGSGSGTDFTLTISNLQPEDFASYYCQQANSFPLTFGGGTKVEIKR |
| binds | no binding | cHv75-2a11.G1(L328C)k (antibody, human IgG1, kappa, V domains shown, also called [Ag]AB-4; cHv75-2a11.G1(1,328C)k) VH: QVQLVESGGGVVQPGRSLRLSCAASGFTFSSYDMHWVRQAPGKGLEWVAVIWYDGSNKYYADSLKGRFTISRDNSKNTLYLQMNSLRAEDTAVYYCARVIAARTFYYYGMDVWGQGTTVTVSS VL: not shown |
